Data reported in FireProtDB (doi:10.1002/prot.1088).
“And” between values parts separate entries of the source, which are not always exact repeats. Identical values can stand only once.

B1: Lysozyme C, P61626 (parent)
chain: MKALIVLGLVLLSVTVQGKVFERCELARTLKRLGMDGYRGISLANWMCLAKWESGYNTRATNYNAGDRSTDYGIFQINSRYWCNDGKTPGAVNACHLSCSALLQDNIADAVACAKRVVRDPQGIRAWVAWRNRCQNRDVRQYVQGCGV

Variants of: B1
Conditions: Homo sapiens; pH 2.51; Thermal; DSC; Gly-HCl 0.05 M; reversible: yes; structure 1LZ1; whole UniProt chain shown

| Variant | Tm | unfolding enthalpy (calorimetric) | unfolding enthalpy (van 't Hoff) |
| --- | --- | --- | --- |
| N136A | 62.1 °C | 99.9 kcal/mol | 106 kcal/mol |
| R39A | 66.1 °C | 98.7 kcal/mol | 107 kcal/mol |

Same assay, conditions: Homo sapiens; pH 2.7; 64.9 °C; Thermal; DSC; Gly-HCl 0.05 M; reversible: yes; structure 1LZ1; whole UniProt chain shown

| Variant | ddG of mutation (higher = less stable) |
| --- | --- |
| N136A | -0.19 kcal/mol |
| N136G | -0.05 kcal/mol |
| Q76A | -0.91 kcal/mol |
| R68A | -0.43 kcal/mol |
| Y56A | 2.49 kcal/mol |
| Y56G | 2.32 kcal/mol |
| R39G | -1.15 kcal/mol |
| H96A | 0.14 kcal/mol |

Same assay, conditions: Homo sapiens; pH 2.7; Thermal; DSC; Gly-HCl 0.05 M; reversible: yes; structure 1LZ1; whole UniProt chain shown

| Variant | Tm | change of melting temperature, mutant - wild type (higher = more stable) | heat capacity change of unfolding | unfolding enthalpy (calorimetric) | unfolding enthalpy (van 't Hoff) |
| --- | --- | --- | --- | --- | --- |
| N136A | 65.5 °C | 0.6 °C | 1.24 kcal/mol/K | 104 kcal/mol |  |
| N136G | 65.1 °C | 0.2 °C | 1.65 kcal/mol/K | 101 kcal/mol |  |
| Q76A | 67.8 °C and 68 °C | 3.1 °C | 1.65 kcal/mol/K | 104 kcal/mol and 98.2 kcal/mol | 113 kcal/mol |
| R68A | 66.3 °C | 1.4 °C | 1.51 kcal/mol/K | 104 kcal/mol |  |
| Y56A | 56 °C | -8.9 °C | 0.98 kcal/mol/K | 96.8 kcal/mol |  |
| Y56G | 56.7 °C | -8.2 °C | 0.96 kcal/mol/K | 96.8 kcal/mol |  |
| R39A | 69.4 °C | 4.5 °C | 1.82 kcal/mol/K | 96.6 kcal/mol |  |
| R39G | 68.6 °C | 3.7 °C | 1.74 kcal/mol/K | 103 kcal/mol |  |
| H96A | 64.3 °C and 64.4 °C | -0.5 °C | 1.51 kcal/mol/K | 103 kcal/mol | 112 kcal/mol |

Same assay, conditions: Homo sapiens; pH 2.74; Thermal; DSC; Gly-HCl 0.05 M; reversible: yes; structure 1LZ1; whole UniProt chain shown

| Variant | Tm | unfolding enthalpy (calorimetric) | unfolding enthalpy (van 't Hoff) |
| --- | --- | --- | --- |
| N136A | 66.2 °C | 107 kcal/mol | 112 kcal/mol |
| N136G | 65.7 °C | 103 kcal/mol | 110 kcal/mol |

Same assay, conditions: Homo sapiens; pH 2.87; Thermal; DSC; Gly-HCl 0.05 M; reversible: yes; structure 1LZ1; whole UniProt chain shown

| Variant | Tm | unfolding enthalpy (calorimetric) | unfolding enthalpy (van 't Hoff) |
| --- | --- | --- | --- |
| N136A | 68.6 °C | 109 kcal/mol | 117 kcal/mol |

Same assay, conditions: Homo sapiens; pH 3.02; Thermal; DSC; Gly-HCl 0.05 M; reversible: yes; structure 1LZ1; whole UniProt chain shown

| Variant | Tm | unfolding enthalpy (calorimetric) | unfolding enthalpy (van 't Hoff) |
| --- | --- | --- | --- |
| N136A | 70.9 °C | 111 kcal/mol | 118 kcal/mol |

Same assay, conditions: Homo sapiens; pH 2.95; Thermal; DSC; Gly-HCl 0.05 M; reversible: yes; structure 1LZ1; whole UniProt chain shown

| Variant | Tm | unfolding enthalpy (calorimetric) | unfolding enthalpy (van 't Hoff) |
| --- | --- | --- | --- |
| N136G | 69.3 °C | 107 kcal/mol | 115 kcal/mol |

Same assay, conditions: Homo sapiens; pH 3.1; Thermal; DSC; Gly-HCl 0.05 M; reversible: yes; structure 1LZ1; whole UniProt chain shown

| Variant | Tm | unfolding enthalpy (calorimetric) | unfolding enthalpy (van 't Hoff) |
| --- | --- | --- | --- |
| N136G | 71.6 °C | 113 kcal/mol | 119 kcal/mol |
| Q76A | 75.1 °C | 115 kcal/mol | 123 kcal/mol |

Same assay, conditions: Homo sapiens; pH 2.5; Thermal; DSC; Gly-HCl 0.05 M; reversible: yes; structure 1LZ1; whole UniProt chain shown

| Variant | Tm | unfolding enthalpy (calorimetric) | unfolding enthalpy (van 't Hoff) |
| --- | --- | --- | --- |
| Q76A | 64.5 °C | 97 kcal/mol | 103 kcal/mol |
| R68A | 62.8 °C | 101 kcal/mol | 108 kcal/mol |
| Y56G | 53 °C | 85.8 kcal/mol | 87 kcal/mol |
| R39G | 64.6 °C | 102 kcal/mol | 107 kcal/mol |
| H96A | 61.1 °C | 97.5 kcal/mol | 107 kcal/mol |

Same assay, conditions: Homo sapiens; pH 2.71; Thermal; DSC; Gly-HCl 0.05 M; reversible: yes; structure 1LZ1; whole UniProt chain shown

| Variant | Tm | unfolding enthalpy (calorimetric) | unfolding enthalpy (van 't Hoff) |
| --- | --- | --- | --- |
| R68A | 66.6 °C | 106 kcal/mol | 113 kcal/mol |
| R39A | 69.8 °C | 106 kcal/mol | 113 kcal/mol |

Same assay, conditions: Homo sapiens; pH 2.84; Thermal; DSC; Gly-HCl 0.05 M; reversible: yes; structure 1LZ1; whole UniProt chain shown

| Variant | Tm | unfolding enthalpy (calorimetric) | unfolding enthalpy (van 't Hoff) |
| --- | --- | --- | --- |
| R68A | 69.1 °C | 109 kcal/mol | 117 kcal/mol |

Same assay, conditions: Homo sapiens; pH 3; Thermal; DSC; Gly-HCl 0.05 M; reversible: yes; structure 1LZ1; whole UniProt chain shown

| Variant | Tm | unfolding enthalpy (calorimetric) | unfolding enthalpy (van 't Hoff) |
| --- | --- | --- | --- |
| R68A | 70.9 °C | 114 kcal/mol | 121 kcal/mol |
| Y56A | 61.7 °C | 94.4 kcal/mol | 96.3 kcal/mol |
| H96A | 69.5 °C | 110 kcal/mol | 117 kcal/mol |

Same assay, conditions: Homo sapiens; pH 2.72; Thermal; DSC; Gly-HCl 0.05 M; reversible: yes; structure 1LZ1; whole UniProt chain shown

| Variant | Tm | unfolding enthalpy (calorimetric) | unfolding enthalpy (van 't Hoff) |
| --- | --- | --- | --- |
| Y56A | 56.3 °C | 88 kcal/mol | 89.2 kcal/mol |

Same assay, conditions: Homo sapiens; pH 3.18; Thermal; DSC; Gly-HCl 0.05 M; reversible: yes; structure 1LZ1; whole UniProt chain shown

| Variant | Tm | unfolding enthalpy (calorimetric) | unfolding enthalpy (van 't Hoff) |
| --- | --- | --- | --- |
| Y56A | 65 °C | 96.3 kcal/mol | 97.5 kcal/mol |

Same assay, conditions: Homo sapiens; pH 2.78; Thermal; DSC; Gly-HCl 0.05 M; reversible: yes; structure 1LZ1; whole UniProt chain shown

| Variant | Tm | unfolding enthalpy (calorimetric) | unfolding enthalpy (van 't Hoff) |
| --- | --- | --- | --- |
| Y56G | 58.5 °C | 90.1 kcal/mol | 92.3 kcal/mol |

Same assay, conditions: Homo sapiens; pH 3.24; Thermal; DSC; Gly-HCl 0.05 M; reversible: yes; structure 1LZ1; whole UniProt chain shown

| Variant | Tm | unfolding enthalpy (calorimetric) | unfolding enthalpy (van 't Hoff) |
| --- | --- | --- | --- |
| Y56G | 65.6 °C | 97.8 kcal/mol | 99.7 kcal/mol |

Same assay, conditions: Homo sapiens; pH 3.23; Thermal; DSC; Gly-HCl 0.05 M; reversible: yes; structure 1LZ1; whole UniProt chain shown

| Variant | Tm | unfolding enthalpy (calorimetric) | unfolding enthalpy (van 't Hoff) |
| --- | --- | --- | --- |
| R39A | 77.6 °C | 120 kcal/mol | 129 kcal/mol |

Same assay, conditions: Homo sapiens; pH 2.69; Thermal; DSC; Gly-HCl 0.05 M; reversible: yes; structure 1LZ1; whole UniProt chain shown

| Variant | Tm | unfolding enthalpy (calorimetric) | unfolding enthalpy (van 't Hoff) |
| --- | --- | --- | --- |
| R39G | 68.2 °C | 109 kcal/mol | 113 kcal/mol |

Same assay, conditions: Homo sapiens; pH 2.81; Thermal; DSC; Gly-HCl 0.05 M; reversible: yes; structure 1LZ1; whole UniProt chain shown

| Variant | Tm | unfolding enthalpy (calorimetric) | unfolding enthalpy (van 't Hoff) |
| --- | --- | --- | --- |
| R39G | 70.9 °C | 113 kcal/mol | 116 kcal/mol |
